In the assay the target is T1, CD33 (UniProt P20138 18-364, limits assumed).
T1 construct: whole, on cells; Endogenous antigen on Molm13 cells; also called cell surface antigen CD33; CD33-expressing Molm13 cells
The assay is described as follows: FACS on CD33-expressing Molm13 cells, Dig-Cy5 as payload. As for the experimental part: Simultaneous antigen binding of the antibodies generated in example 1 was analyzed by FACS analysis on LeY-expressing MCF7 cells, CD33-expressing Molm13 cells and GPC3-expressing HepG2 cells using Dig-Cy5 as payload to address hapten binding.

T1 sequence (P20138 18-364 limits assumed): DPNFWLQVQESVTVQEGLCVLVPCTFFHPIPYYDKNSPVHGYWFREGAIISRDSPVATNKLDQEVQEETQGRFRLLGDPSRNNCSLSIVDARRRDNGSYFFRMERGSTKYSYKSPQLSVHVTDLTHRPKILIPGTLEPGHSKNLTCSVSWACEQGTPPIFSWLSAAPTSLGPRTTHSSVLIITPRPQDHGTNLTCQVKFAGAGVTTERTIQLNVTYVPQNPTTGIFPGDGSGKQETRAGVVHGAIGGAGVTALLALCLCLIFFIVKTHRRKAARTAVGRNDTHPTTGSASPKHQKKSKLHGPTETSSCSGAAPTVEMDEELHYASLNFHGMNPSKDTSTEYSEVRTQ

B1: BsAb CD33-Dig(SS)-CD33 (bispecific antibody)
light: DIQLTQSPSTLSASVGDRVTITCRASESLDNYGIRFLTWFQQKPGKAPKLLMYAASNQGSGVPSRFSGSGSGTEFTLTISSLQPDDFATYYCQQTKEVPWSFGQGTKVEVKRTVAAPSVFIFPPSDEQLKSGTASVVCLLNNFYPREAKVQWKVDNALQSGNSQESVTEQDSKDSTYSLSSTLTLSKADYEKHKVYACEVTHQGLSSPVTKSFNRGEC
heavy 1: EVQLVQSGAEVKKPGSSVKVSCKASGYTITDSNIHWVRQAPGQSLEWIGYIYPYNGGTDYNQKFKNRATLTVDNPTNTAYMELSSLRSEDTAFYYCVNGNPWLAYWGQGTLVTVSSASTKGPSVFPLAPSSKSTSGGTAALGCLVKDYFPEPVTVSWNSGALTSGVHTFPAVLQSSGLYSLSSVVTVPSSSLGTQTYICNVNHKPSNTKVDKKVEPKSCGGGGSGGGGSGGGGSGGGGSQVQLVESGGGLVKPGGSLRLSCAASGFTFSDYAMSWIRQAPGKCLEWVSSINIGATYIYYADSVKGRFTISRDNAKNSLYLQMNSLRAEDTAVYYCARPGSPYEYDKAYYSMAYWGQGTTVTVSSGQPREPQVYTLPPCRDELTKNQVSLWCLVKGFYPSDIAVEWESNGQPENNYKTTPPVLDSDGSFFLYSKLTVDKSRWQQGNVFSCSVMHEALHNHYTQKSLSLSPGK
heavy 2: EVQLVQSGAEVKKPGSSVKVSCKASGYTITDSNIHWVRQAPGQSLEWIGYIYPYNGGTDYNQKFKNRATLTVDNPTNTAYMELSSLRSEDTAFYYCVNGNPWLAYWGQGTLVTVSSASTKGPSVFPLAPSSKSTSGGTAALGCLVKDYFPEPVTVSWNSGALTSGVHTFPAVLQSSGLYSLSSVVTVPSSSLGTQTYICNVNHKPSNTKVDKKVEPKSCGGGGSGGGGSGGGGSGGGGSDIQMTQSPSSLSASVGDRVTITCRASQDIKNYLNWYQQKPGKAPKLLIYYSSTLLSGVPSRFSGSGSGTDFTLTISSLQPEDFATYYCQQSITLPPTFGCGTKVEIKGQPREPQVCTLPPSRDELTKNQVSLSCAVKGFYPSDIAVEWESNGQPENNYKTTPPVLDSDGSFFLVSKLTVDKSRWQQGNVFSCSVMHEALHNHYTQKSLSLSPGK
notes: Trivalent, bispecific; no CH2; (Gly4Ser)4 connectors; In the FACS assay it carried Dig-Cy5 as payload
For the molecule B1, the binding result was “binds”.

B2: BsAb Dig-CD33-Dig (bispecific antibody)
light: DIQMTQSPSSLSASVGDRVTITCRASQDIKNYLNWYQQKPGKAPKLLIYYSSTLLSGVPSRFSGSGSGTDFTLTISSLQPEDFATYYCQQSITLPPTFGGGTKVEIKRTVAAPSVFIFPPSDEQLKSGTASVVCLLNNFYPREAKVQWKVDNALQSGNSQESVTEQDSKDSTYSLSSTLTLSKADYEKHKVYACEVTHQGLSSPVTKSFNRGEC
heavy 1: QVQLVESGGGLVKPGGSLRLSCAASGFTFSDYAMSWIRQAPGKGLEWVSSINIGATYIYYADSVKGRFTISRDNAKNSLYLQMNSLRAEDTAVYYCARPGSPYEYDKAYYSMAYWGQGTTVTVSSASTKGPSVFPLAPSSKSTSGGTAALGCLVKDYFPEPVTVSWNSGALTSGVHTFPAVLQSSGLYSLSSVVTVPSSSLGTQTYICNVNHKPSNTKVDKKVEPKSCGGGGSGGGGSGGGGSGGGGSEVQLVQSGAEVKKPGSSVKVSCKASGYTITDSNIHWVRQAPGQSLEWIGYIYPYNGGTDYNQKFKNRATLTVDNPTNTAYMELSSLRSEDTAFYYCVNGNPWLAYWGQGTLVTVSSGQPREPQVYTLPPCRDELTKNQVSLWCLVKGFYPSDIAVEWESNGQPENNYKTTPPVLDSDGSFFLYSKLTVDKSRWQQGNVFSCSVMHEALHNHYTQKSLSLSPGK
heavy 2: QVQLVESGGGLVKPGGSLRLSCAASGFTFSDYAMSWIRQAPGKGLEWVSSINIGATYIYYADSVKGRFTISRDNAKNSLYLQMNSLRAEDTAVYYCARPGSPYEYDKAYYSMAYWGQGTTVTVSSASTKGPSVFPLAPSSKSTSGGTAALGCLVKDYFPEPVTVSWNSGALTSGVHTFPAVLQSSGLYSLSSVVTVPSSSLGTQTYICNVNHKPSNTKVDKKVEPKSCGGGGSGGGGSGGGGSGGGGSDIQLTQSPSTLSASVGDRVTITCRASESLDNYGIRFLTWFQQKPGKAPKLLMYAASNQGSGVPSRFSGSGSGTEFTLTISSLQPDDFATYYCQQTKEVPWSFGQGTKVEVKGQPREPQVCTLPPSRDELTKNQVSLSCAVKGFYPSDIAVEWESNGQPENNYKTTPPVLDSDGSFFLVSKLTVDKSRWQQGNVFSCSVMHEALHNHYTQKSLSLSPGK
notes: as for B1
Turning to B2, the binding result is listed as “binds”.
